One protein from publication PMC3293397 (Biochemistry, 2012) can be followed below.

The series deals with the molecule itself. Put plainly: crystal structure.

B1: S. elongatus KaiC E318A mutant protein (enzyme, Synechococcus elongatus PCC 7942, UniProt Q79PF4 1-519, looked up)
chain: MTSAEMTSPNNNSEHQAIAKMRTMIEGFDDISHGGLPIGRSTLVSGTSGTGKTLFSIQFLYNGIIEFDEPGVFVTFEETPQDIIKNARSFGWDLAKLVDEGKLFILDASPDPEGQEVVGGFDLSALIERINYAIQKYRARRVSIDSVTSVFQQYDASSVVRRELFRLVARLKQIGATTVMTTERIEEYGPIARYGVEEFVSDNVVILRNVLEGERRRRTLEILKLRGTSHMKGEYPFTITDHGINIFPLGAMRLTQRSSNVRVSSGVVRLDEMCGGGFFKDSIILATGATGTGKTLLVSRFVENACANKERAILFAYAESRAQLLRNAYSWGMDFEEMERQNLLKIVCAYPESAGLEDHLQIIKSEINDFKPARIAIDSLSALARGVSNNAFRQFVIGVTGYAKQEEITGLFTNTSDQFMGAHSITDSHISTITDTIILLQYVEIRGEMSRAINVFKMRGSWHDKAIREFMISDKGPDIKDSFRNFERIISGSPTRITVDEKSELSRIVRGVQEKGPES
modifications: phosphothreonine at T432 in five of the six subunits; no S431 phosphorylated
As for B1, the binding result is on record as “binds”.
